Data taken from PMC6408234.

Tests used:
[1] = target: 9C-HLA-A2 (NY-ESO-1 157-165 peptide … on HLA-A*02:01 with human β2m); experiment: biomembrane force probe
[2] = target: C-C-locked R4-MHC (disulfide-bond-locked MHC mutant) (mouse | human); experiment: biomembrane force probe

| peak bond lifetime (at ~10 pN force) [1] [s] | fold reduction of the optimal bond lifetime against R4-MHC [2] [fold] | Substance |
| --- | --- | --- |
| 1 | – | 1G4 TCR |
| – | 2 | 2C TCR (wild type) |
